Measurements reported in patent publication US20030220245A1.
No end group written: not given here.

B1: … (RGD-containing adhesion peptide) (peptide)
peptide: GC(PEG acrylate)GYGRGDSPG

Legend:
[1] = tested on: T1, GCYKNRDCG (plasmin sensitive peptide)
T1 sequence: GCYKNRDCG

[2] = tested on: T2, GCY-DLys-N-DArg-DCG (plasmin stable peptide)
T2 sequence: GCYKNRDCG

[3] = molecular target: receptors that recognize the sequence GRGDSPG; assay: cell-based or functional assay

| Molecule | degradation of PEG-triacrylate/peptide gel by 0.2 units of plasmin in 200 microliters, 37 C [1] | peptide degradation by plasmin, analytical C18 HPLC, plasmin at 1/1000 the peptide concentration, 37 C [1] | degradation of PEG-triacrylate/peptide gel by 0.2 units of plasmin in 200 microliters, 37 C [2] | adhesion and spreading of human foreskin fibroblasts on conjugate addition PEG gels carrying the peptide on one of every 12 acrylates, 6 hours after seeding [3] |
| --- | --- | --- | --- | --- |
| plasmin | The L-Lys, L-Arg configuration of the peptide was readily degraded by the enzyme. In one case, after 6 hours no gel remained. | most of the GCYKNRDCG peptide was degraded in approximately one hour at 37 °C | The DLys, DArg configuration gel has not been shown to degrade by plasminolysis. | – |
| B1 | – | – | – | 50% |
